Assay in all cases: fluorescence polarization; FP: 20 mM Tris-HCl pH 8.0, 50 mM NaCl, 5% glycerol, 1 mM DTT, 5 nM probe, room temperature; EMSA: 20 mM Tris-HCl pH 8.0, 100 mM NaCl, 5% glycerol, room temperature, protein 4x DNA
(In general: In fluorescence polarisation assays a small probe gives low polarisation when free and higher when bound to something large.)

The target of one data set is SBDSpr (SBD of SprMcrA) (Streptomyces pristinaespiralis, UniProt A0A0M4DML1 1-165). The following applies: protein: recombinant, tags: N-terminal 6xHis (pET28a), blunt; for binding result: label: 5'-FAM on one strand; for Kd: label: 5'-FAM on one strand (FP).
The next data set addresses T1, SBDSco E156Q (Streptomyces coelicolor, UniProt Q9L0M9 90-250, E156Q).
T1 sequence: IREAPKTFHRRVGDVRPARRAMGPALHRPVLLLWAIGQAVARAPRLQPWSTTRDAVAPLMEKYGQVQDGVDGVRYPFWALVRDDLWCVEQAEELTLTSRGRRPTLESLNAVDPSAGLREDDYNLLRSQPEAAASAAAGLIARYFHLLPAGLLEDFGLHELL
The following applies: protein: recombinant; tags: 6xHis; label: 5'-FAM on one strand (FP); blunt.

In another data set the target is T2, SBDSco E156R (Streptomyces coelicolor, UniProt Q9L0M9 90-250, E156R).
T2 sequence: T1 sequence with Q67R
The following applies: protein: recombinant; tags: 6xHis; label: 5'-FAM on one strand (FP); blunt.

The next data set deals with T3, SBDSco E156L (Streptomyces coelicolor, UniProt Q9L0M9 90-250, E156L).
T3 sequence: T1 sequence with Q67L
The following applies: protein: recombinant; tags: 6xHis; label: 5'-FAM on one strand (FP); blunt.

The target in the next data set is T4, SBDSco E156D (Streptomyces coelicolor, UniProt Q9L0M9 90-250, E156D).
T4 sequence: T1 sequence with Q67D
The following applies: protein: recombinant; tags: 6xHis; label: 5'-FAM on one strand (FP); blunt.

A further data set has as its target T5, SBDSco (SBD of ScoMcrA) (Streptomyces coelicolor, UniProt Q9L0M9 90-250).
T5 sequence: T1 sequence with Q67E
The following applies: protein: recombinant; tags: N-terminal 6xHis (pET28a); label: 5'-FAM on one strand (FP); blunt.

A further data set deals with T6, SBDSco E156R/D157R (Streptomyces coelicolor, UniProt Q9L0M9 90-250, E156R;D157R).
T6 sequence: T1 sequence with Q67R, D68R
The following applies: protein: recombinant; tags: 6xHis; label: 5'-FAM on one strand (FP); blunt.

The next data set addresses T7, SBDSco E156K (Streptomyces coelicolor, UniProt Q9L0M9 90-250, E156K).
T7 sequence: T1 sequence with Q67K
The following applies: protein: recombinant; tags: 6xHis; label: 5'-FAM on one strand (FP); blunt.

Positions count from the first letter of the chain named.

B1: PT-CCA-10 SP (hemi-PT) (dsDNA)
DNA 1: GAACCCAAGC
DNA 2: GCTTGGGTTC
modifications: SP phosphorothioate between C5 and C6 of strand 1
As to B1, the binding result with SBDSpr (SBD of SprMcrA) is listed as “no binding”.

B2: PT-CCA-10 RP (hemi-PT) (dsDNA)
DNA 1: GAACCCAAGC
DNA 2: GCTTGGGTTC
modifications: RP phosphorothioate between C5 and C6 of strand 1
Turning to B2, the binding result with SBDSpr (SBD of SprMcrA) was “no binding”.

B3: PT-GATC-10 SP (hemi-PT) (dsDNA)
DNA 1: GATGATCCTA
DNA 2: TAGGATCATC
modifications: SP phosphorothioate between G4 and A5 of strand 1
As to B3, the binding result with SBDSpr (SBD of SprMcrA) is “no binding”.

B4: PT-GAAC-10 RP (hemi-PT) (dsDNA)
DNA 1: GGCGAACGTG
DNA 2: CACGTTCGCC
modifications: RP phosphorothioate between G4 and A5 of strand 1
As to B4, the dissociation constant Kd (as a rule, the concentration at which binding is half-saturated) with SBDSco E156Q was determined as 618 ± 43 nM; in the data set with SBDSpr (SBD of SprMcrA), 95 ± 25 nM; with SBDSco E156R, 267 ± 15 nM; in the data set with SBDSco E156L, 499 ± 37 nM; with SBDSco E156D, 846 ± 74 nM; with SBDSco (SBD of ScoMcrA), 567 ± 37 nM. In addition, the Kd is 183 ± 9 nM with SBDSco E156R/D157R and 297 ± 19 nM with SBDSco E156K.

B5: PT-GATC-10 RP (hemi-PT) (dsDNA)
DNA 1: GATGATCCTA
DNA 2: TAGGATCATC
modifications: RP phosphorothioate between G4 and A5 of strand 1
Regarding B5, the Kd was 1020 ± 49 nM in the data set with SBDSco E156Q; 38 ± 8 nM in the data set with SBDSpr (SBD of SprMcrA); 346 ± 17 nM in the data set with SBDSco E156R; 791 ± 42 nM with SBDSco E156L; 1320 ± 99 nM in the data set with SBDSco E156D; 1090 ± 58 nM in the data set with SBDSco (SBD of ScoMcrA). Also, the Kd with SBDSco E156R/D157R was 192 ± 12 nM; with SBDSco E156K it was 370 ± 14 nM.
